Publication PMC2954905, “Controlling Cellular P-TEFb Activity by the HIV-1 Transcriptional Transactivator Tat”

Target: HEXIM1 (UniProt O94992 1-359)
Experiment: EMSA; EMSA: 50 mM Tris-HCl pH 8.0, 100 mM NaCl, 14.4 mM 2-mercaptoethanol, 20 ng/ul E. coli tRNA, RT; ~2 fmol RNA; 4-5% native PAGE in 0.5x TBE, 2.5% glycerol
Settings: protein: recombinant, hairpin

Chain of HEXIM1 (O94992 whole entry): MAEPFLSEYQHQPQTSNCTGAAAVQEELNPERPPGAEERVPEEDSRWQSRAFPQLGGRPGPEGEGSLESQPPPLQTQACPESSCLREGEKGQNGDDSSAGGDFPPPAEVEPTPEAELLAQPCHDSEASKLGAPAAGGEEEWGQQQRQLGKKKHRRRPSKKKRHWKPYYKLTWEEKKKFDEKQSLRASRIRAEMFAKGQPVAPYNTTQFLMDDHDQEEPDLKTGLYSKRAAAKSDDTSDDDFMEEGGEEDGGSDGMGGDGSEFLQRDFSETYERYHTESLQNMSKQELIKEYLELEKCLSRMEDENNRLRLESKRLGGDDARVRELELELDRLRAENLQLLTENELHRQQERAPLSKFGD

B1: 5'HPdm+pm (in vitro) (structured_RNA)
RNA: GGAUGUGAGGGCCUAGACCGACCGACAUCUGUCACCCCAUUGAUCGCCAGGGUUGAUUCGGCUCUAGACCGACGCUAGGCGGGUGUCCCCUUCCUCCCUCACCGCUCCAUG
B1: no binding (label: 32P internal).

GGGCCACUGACCCCAUUGAUCGGAAGAUCUGGCUGGCUACAGUGGAUC (structured_RNA) [DHBS]: binds (label: 32P, GGAA tetraloop).
